The target in assay [1] is T1, eIF4G (S. cerevisiae, UniProt P39935 1-952; P07260 1-213).
T1 construct: eIF4G1, scaffolding protein of translation initiation, S. cerevisiae; present in the preparations of eIF4G; the model treats G as one unit; also called eIF4G1; S•Tag-eIF4G; source: recombinant, expression and purification previously described (Hilliker et al., 2011)
T1 sequence (looked up) 1: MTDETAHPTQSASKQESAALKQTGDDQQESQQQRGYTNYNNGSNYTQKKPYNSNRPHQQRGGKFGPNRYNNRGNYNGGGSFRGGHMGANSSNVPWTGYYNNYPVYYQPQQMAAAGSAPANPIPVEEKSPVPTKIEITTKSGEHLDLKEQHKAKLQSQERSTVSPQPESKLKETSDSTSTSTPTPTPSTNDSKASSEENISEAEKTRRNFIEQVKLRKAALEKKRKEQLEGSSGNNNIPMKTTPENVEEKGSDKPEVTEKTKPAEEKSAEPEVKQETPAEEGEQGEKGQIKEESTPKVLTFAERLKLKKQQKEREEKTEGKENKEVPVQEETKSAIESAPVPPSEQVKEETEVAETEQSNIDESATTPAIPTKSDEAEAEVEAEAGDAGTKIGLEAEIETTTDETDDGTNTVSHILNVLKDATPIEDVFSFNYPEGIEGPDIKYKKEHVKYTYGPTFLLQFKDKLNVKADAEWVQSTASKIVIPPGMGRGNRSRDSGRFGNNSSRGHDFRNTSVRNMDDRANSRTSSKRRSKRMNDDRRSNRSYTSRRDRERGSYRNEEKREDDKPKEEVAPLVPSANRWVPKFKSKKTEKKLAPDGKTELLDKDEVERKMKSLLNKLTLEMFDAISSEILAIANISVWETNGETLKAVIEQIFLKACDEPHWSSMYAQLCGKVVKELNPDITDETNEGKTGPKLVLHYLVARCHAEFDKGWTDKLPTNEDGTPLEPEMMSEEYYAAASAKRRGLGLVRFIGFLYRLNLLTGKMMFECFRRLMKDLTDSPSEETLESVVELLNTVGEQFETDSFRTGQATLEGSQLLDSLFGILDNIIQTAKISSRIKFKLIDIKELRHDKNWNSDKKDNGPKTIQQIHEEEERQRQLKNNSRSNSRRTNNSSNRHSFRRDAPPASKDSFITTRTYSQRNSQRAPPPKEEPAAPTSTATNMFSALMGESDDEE
T1 sequence (looked up) 2: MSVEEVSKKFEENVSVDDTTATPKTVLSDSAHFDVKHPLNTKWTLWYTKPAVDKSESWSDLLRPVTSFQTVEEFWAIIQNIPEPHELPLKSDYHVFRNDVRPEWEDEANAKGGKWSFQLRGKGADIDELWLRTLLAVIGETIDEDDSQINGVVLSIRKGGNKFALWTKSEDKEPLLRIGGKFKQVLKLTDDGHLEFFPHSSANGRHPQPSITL
Put plainly: global fit of RNA unwinding time courses to a thermodynamic model; K1/2 of a binding step calculated with the model of Figure 4A; step without RNA, ATP bound to eIF4A. Conditions: both partners purified.

The target of assay [2] is T2, Ded1p-eIF4G complex (S. cerevisiae, UniProt P06634 1-604; P39935 1-952; P07260 1-213).
T2 construct: Ded1p, S. cerevisiae, wild type, as Wm1; eIF4G1, S. cerevisiae, as in Wm3; eIF4E, S. cerevisiae, as in Wm3; present in the preparations of eIF4G; State of the thermodynamic model; also called DG; DTG; source: formed from the purified recombinant proteins; copies: + +
The assay is described as above. To be noted: both partners purified.

Assay [3] has as its target T2, Ded1p-eIF4G complex. The assay is described as follows: global fit of RNA unwinding time courses to a thermodynamic model; K1/2 of a binding step calculated with the model of Figure 4A; RNA bound to the binder before the step, ATP bound to Ded1p. To be noted: both partners purified.
The target of assay [4] is Ded1p (wild type, N-terminal His6-tag) (S. cerevisiae), P06634. Put plainly: cross-linking; formaldehyde 1% (v/v), 30 min, room temperature; Ded1p 0.3 µM, eIF4A 2 µM or as indicated, RNA 2 µM (16 bp, 25 nt 3'-overhang), 0.5 mM ADPNP-MgCl2, unwinding buffer; Western blot with α-Ded1p. Conditions: remark: other sources report otherwise.
The target in assay [5] is T1, eIF4G. The assay is described as follows: global fit of RNA unwinding time courses to a thermodynamic model; K1/2 of a binding step calculated with the model of Figure 4A (Kintek Global Explorer; 16 bp duplex, 25 nt 3' overhang); step without RNA and without ATP. To be noted: both partners purified.
Assay [6] has as its target T2, Ded1p-eIF4G complex. Described as above. To be noted: both partners purified.

T2 sequence (P06634 whole entry, one chain of several): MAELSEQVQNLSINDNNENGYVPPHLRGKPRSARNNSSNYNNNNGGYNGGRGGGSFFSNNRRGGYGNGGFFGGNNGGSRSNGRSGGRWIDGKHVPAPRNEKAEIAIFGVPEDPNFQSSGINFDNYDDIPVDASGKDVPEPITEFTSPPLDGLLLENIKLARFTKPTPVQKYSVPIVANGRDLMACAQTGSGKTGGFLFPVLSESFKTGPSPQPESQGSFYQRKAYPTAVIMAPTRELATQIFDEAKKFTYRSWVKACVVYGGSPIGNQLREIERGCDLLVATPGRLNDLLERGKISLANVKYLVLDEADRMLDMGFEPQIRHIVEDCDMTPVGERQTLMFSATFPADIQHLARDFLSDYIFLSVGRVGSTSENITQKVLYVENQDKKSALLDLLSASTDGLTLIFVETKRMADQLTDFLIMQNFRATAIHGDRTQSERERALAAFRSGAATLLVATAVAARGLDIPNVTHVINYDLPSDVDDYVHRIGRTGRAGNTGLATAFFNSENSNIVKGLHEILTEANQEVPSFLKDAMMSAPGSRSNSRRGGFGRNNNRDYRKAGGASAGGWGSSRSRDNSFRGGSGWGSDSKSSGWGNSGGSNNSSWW
Ded1p (wild type, N-terminal His6-tag) (S. cerevisiae), P06634, sequence (P06634 whole entry): as the sequence (P06634 whole entry, one chain of several) above

B1: eIF4A (enzyme, S. cerevisiae, UniProt P10081 1-395, looked up)
chain: MSEGITDIEESQIQTNYDKVVYKFDDMELDENLLRGVFGYGFEEPSAIQQRAIMPIIEGHDVLAQAQSGTGKTGTFSIAALQRIDTSVKAPQALMLAPTRELALQIQKVVMALAFHMDIKVHACIGGTSFVEDAEGLRDAQIVVGTPGRVFDNIQRRRFRTDKIKMFILDEADEMLSSGFKEQIYQIFTLLPPTTQVVLLSATMPNDVLEVTTKFMRNPVRILVKKDELTLEGIKQFYVNVEEEEYKYECLTDLYDSISVTQAVIFCNTRRKVEELTTKLRNDKFTVSAIYSDLPQQERDTIMKEFRSGSSRILISTDLLARGIDVQQVSLVINYDLPANKENYIHRIGRGGRFGRKGVAINFVTNEDVGAMRELEKFYSTQIEELPSDIATLLN
notes: eIF4A, DEAD-box RNA helicase, S. cerevisiae, wild type; also called wild-type yeast eIF4A; source: recombinant, purified as described (Hilliker et al., 2011)
As to B1, the Kd is 1000 nM in the assay with eIF4G [1]; 0.28 nM with Ded1p-eIF4G complex [2]; 0.006 nM in the assay with Ded1p-eIF4G complex [3]; 500 nM with eIF4G [5]; 0.14 nM with Ded1p-eIF4G complex [6]. In assay [4], this molecule returned a stoichiometry N of 1.

Values taken from paper PMC4990422, “Coupling between the DEAD-box RNA helicases Ded1p and eIF4A” (eLife, 2016).
